From patent US20260116991A1 (HAINAN SIMCERE ZAIMING PHARMACEUTICAL, published 2026)

Columns and labels:
[1] = target: biotinylated labeled human GPC3 protein (produced in-house) (human, UniProt P51654 25-559, limits assumed, biotinylated (Dojindo, Cat. No. LK03); sites not stated); test: ELISA, biotinylated human GPC3 protein
[2] = target: T1, human GPC3 on CHO-K1-human GPC3 cells (CHOK1-hGPC3.2B5) (human, UniProt P51654 25-554); test: FACS, CHOK1-hGPC3.2B5 cells;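 also: flow cytometry of humanized antibodies binding to the cells over one hour in the cold, read as cell mean fluorescence intensity, with EC50 obtained by curve fitting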
T1 construct: whole, on cells
Method: The desired cells were expanded to a logarithmic growth phase in a T-75 cell culture flask, the medium was removed by pipetting, and the cells were washed twice with a PBS buffer, and digested with trypsin. Then a complete medium was added to stop the digestion, and the cells were blown into a single cell suspension. After counting, the cells were centrifuged, and the cell pellet was resuspended with an FACS buffer (PBS+2% fetal bovine serum) to 2×10⁶ cells/mL. The cell resuspension solution was added to a 96-well FACS reaction plate at 50 μl/well, and a humanized antibody sample to be tested was added at 50 μl/well for incubation at 4° C. for 1 h. […] After the plate was centrifuged and washed 3 times with a PBS buffer, 100 μl of the resulting solution was assayed and analyzed by FACS (FACS Canto™, purchased from BD Biosciences). Data analysis was performed by software (FlowJo) to obtain the mean fluorescence intensity (MFI) of the cells. Then, analysis was performed by software (GraphPad Prism8), data were fitted, and EC₅₀ values were calculated.

Row | OD450 at 0.0008 nM [1] [OD450] | OD450 at 0.004 nM [1] [OD450] | OD450 at 0.02 nM [1] [OD450] | OD450 at 0.11 nM [1] [OD450] | OD450 at 0.53 nM [1] [OD450] | OD450 at 2.67 nM [1] [OD450] | OD450 at 13.33 nM [1] [OD450] | OD450 at 66.66 nM [1] [OD450] | EC50 [2] [nM] | Max MFI [2] [MFI] | OD450 at 0.0004 nM [1] [OD450] | OD450 at 0.002 nM [1] [OD450] | OD450 at 0.011 nM [1] [OD450] | OD450 at 0.056 nM [1] [OD450] | OD450 at 0.28 nM [1] [OD450] | OD450 at 1.39 nM [1] [OD450] | OD450 at 6.94 nM [1] [OD450] | OD450 at 34.72 nM [1] [OD450] | Binder
1 | 0.082 | 0.115 | 0.334 | 1.12 | 1.97 | 2.27 | 2.21 | 2.45 | 45.1 | 2070 | – | – | – | – | – | – | – | – | hAb003LH1L1a (antibody, human IgG1, V domains shown, Humanized F2.154.1; VH H1 + VL L1a; expressed as human IgG1) VH: EVQLVQSGAEVKKPGSSVKVSCKASGYTFSDYEMHWVRQAPGQGLEWMGTIDPETGNTAYTQKFMDRVTITADKSTSTAYMELSSLRSEDTAVYYCTRGYSFTYWGQGTLVTVSS VL: DIVMTQTPLSLPVTPGEPASISCRSSQNIVHSDGNTYLQWYLQKPGQSPQLLIFKVSNRFSGVPDRFSGSGSGTDFTLKISRVEAEDVGVYYCFQGSHVPFTFGQGTKLEIK
2 | 0.192 | 0.629 | 1 | 1.83 | 2.36 | 2.4 | 2.29 | 2.28 | 1.02 | 4880 | – | – | – | – | – | – | – | – | hAb006LH2L1 (antibody, human IgG1, V domains shown, Humanized F3.38.7; VH H2 + VL L1; expressed as human IgG1) VH: EVQLVQSGAEVKKPGSSVKVSCKASGYTFTDYEIHWVRQAPGQGLEWMGAIDPKTGNTAYNQKFMGRVTITADKSTSTAYMELSSLRSEDTAVYYCTRYFSFAYWGQGTLVTVSS VL: DIVMTQTPLSLPVTPGEPASISCRSSQTFVHSNGNTYLQWYLQKPGQSPQLLIYKVSNRFSGVPDRFSGSGSGTDFTLKISRVEAEDVGVYYCFQGSHVPYTFGQGTKLEIK
3 | 0.147 | 0.371 | 1.11 | 2.1 | 2.35 | 2.5 | 2.44 | 2.65 | 1.2 | 5010 | – | – | – | – | – | – | – | – | hAb003LH1L1b (antibody, human IgG1, V domains shown, Humanized F2.154.1; VH H1 + VL L1b; expressed as human IgG1) VH: EVQLVQSGAEVKKPGSSVKVSCKASGYTFSDYEMHWVRQAPGQGLEWMGTIDPETGNTAYTQKFMDRVTITADKSTSTAYMELSSLRSEDTAVYYCTRGYSFTYWGQGTLVTVSS VL: DIVMTQTPLSLPVTPGEPASISCRSSQNIVHSNRNTYLQWYLQKPGQSPQLLIFKVSNRFSGVPDRFSGSGSGTDFTLKISRVEAEDVGVYYCFQGSHVPFTFGQGTKLEIK
4 | 0.151 | 0.376 | 1.03 | 1.98 | 2.43 | 2.47 | 2.53 | 2.54 | 1.07 | 5140 | – | – | – | – | – | – | – | – | hAb003LH2L1 (antibody, human IgG1, V domains shown, Humanized F2.154.1; VH H2 + VL L1; expressed as human IgG1) VH: EVQLVQSGAEVKKPGSSVKVSCKASGYRFTDYEMHWVRQAPGQGLEWMGTIDPETGNTAYTQKFMDRVTITADKSTSTAYMELSSLRSEDTAVYYCTRGYSFTYWGQGTLVTVSS VL: DIVMTQTPLSLPVTPGEPASISCRSSQNIVHSNGNTYLQWYLQKPGQSPQLLIFKVSNRFSGVPDRFSGSGSGTDFTLKISRVEAEDVGVYYCFQGSHVPFTFGQGTKLEIK
5 | 0.154 | 0.287 | 0.819 | 1.65 | 2.06 | 2.2 | 2.25 | 2.33 | 0.929 | 4920 | – | – | – | – | – | – | – | – | hAb006LH3L1 (antibody, human IgG1, V domains shown, Humanized F3.38.7; VH H3 + VL L1; expressed as human IgG1) VH: EVQLVQSGAEVKKPGSSVKVSCKASGYTFTDYEIHWVRQAPGQGLEWMGAIDPKTGNTAYNQKFMGRVTLTADKSTSTAYMELSSLRSEDTAVYYCTRYFSFAYWGQGTLVTVSS VL: DIVMTQTPLSLPVTPGEPASISCRSSQTFVHSNGNTYLQWYLQKPGQSPQLLIYKVSNRFSGVPDRFSGSGSGTDFTLKISRVEAEDVGVYYCFQGSHVPYTFGQGTKLEIK
6 | 0.088 | 0.146 | 0.423 | 1.18 | 1.9 | 2.14 | 2.18 | 2.34 | 11.6 | 1770 | – | – | – | – | – | – | – | – | hAb003LH2L1a (antibody, human IgG1, V domains shown, Humanized F2.154.1; VH H2 + VL L1a; expressed as human IgG1) VH: EVQLVQSGAEVKKPGSSVKVSCKASGYRFTDYEMHWVRQAPGQGLEWMGTIDPETGNTAYTQKFMDRVTITADKSTSTAYMELSSLRSEDTAVYYCTRGYSFTYWGQGTLVTVSS VL: DIVMTQTPLSLPVTPGEPASISCRSSQNIVHSDGNTYLQWYLQKPGQSPQLLIFKVSNRFSGVPDRFSGSGSGTDFTLKISRVEAEDVGVYYCFQGSHVPFTFGQGTKLEIK
7 | 0.171 | 0.372 | 1.05 | 1.97 | 2.44 | 2.39 | 2.5 | 2.6 | 0.584 | 5000 | – | – | – | – | – | – | – | – | hAb003LH2L1b (antibody, human IgG1, V domains shown, Humanized F2.154.1; VH H2 + VL L1b; expressed as human IgG1) VH: EVQLVQSGAEVKKPGSSVKVSCKASGYRFTDYEMHWVRQAPGQGLEWMGTIDPETGNTAYTQKFMDRVTITADKSTSTAYMELSSLRSEDTAVYYCTRGYSFTYWGQGTLVTVSS VL: DIVMTQTPLSLPVTPGEPASISCRSSQNIVHSNRNTYLQWYLQKPGQSPQLLIFKVSNRFSGVPDRFSGSGSGTDFTLKISRVEAEDVGVYYCFQGSHVPFTFGQGTKLEIK
8 | 0.16 | 0.316 | 0.872 | 1.91 | 2.41 | 2.55 | 2.4 | 2.37 | 1.14 | 4790 | – | – | – | – | – | – | – | – | hAb006LH2L1b (antibody, human IgG1, V domains shown, Humanized F3.38.7; VH H2 + VL L1b; expressed as human IgG1) VH: EVQLVQSGAEVKKPGSSVKVSCKASGYTFTDYEIHWVRQAPGQGLEWMGAIDPKTGNTAYNQKFMGRVTITADKSTSTAYMELSSLRSEDTAVYYCTRYFSFAYWGQGTLVTVSS VL: DIVMTQTPLSLPVTPGEPASISCRSSQTFVHSNANTYLQWYLQKPGQSPQLLIYKVSNRFSGVPDRFSGSGSGTDFTLKISRVEAEDVGVYYCFQGSHVPYTFGQGTKLEIK
9 | 0.155 | 0.309 | 0.878 | 1.93 | 2.36 | 2.42 | 2.36 | 2.5 | 0.97 | 4670 | – | – | – | – | – | – | – | – | hAb006LH3L1b (antibody, human IgG1, V domains shown, Humanized F3.38.7; VH H3 + VL L1b; expressed as human IgG1) VH: EVQLVQSGAEVKKPGSSVKVSCKASGYTFTDYEIHWVRQAPGQGLEWMGAIDPKTGNTAYNQKFMGRVTLTADKSTSTAYMELSSLRSEDTAVYYCTRYFSFAYWGQGTLVTVSS VL: DIVMTQTPLSLPVTPGEPASISCRSSQTFVHSNANTYLQWYLQKPGQSPQLLIYKVSNRFSGVPDRFSGSGSGTDFTLKISRVEAEDVGVYYCFQGSHVPYTFGQGTKLEIK
10 | – | – | – | – | – | – | – | – | 1.16 | 18000 | 0.071 | 0.102 | 0.265 | 0.756 | 1.3 | 1.46 | 1.44 | 1.36 | hAb006LH3L1c (antibody, human IgG1, V domains shown, Humanized F3.38.7; VH H3 + VL L1c; expressed as human IgG1) VH: EVQLVQSGAEVKKPGSSVKVSCKASGYTFTDYEIHWVRQAPGQGLEWMGAIDPKTGNTAYNQKFMGRVTLTADKSTSTAYMELSSLRSEDTAVYYCTRYFSFAYWGQGTLVTVSS VL: DIVMTQTPLSLPVTPGEPASISCRSSQTFVHSNRNTYLQWYLQKPGQSPQLLIYKVSNRFSGVPDRFSGSGSGTDFTLKISRVEAEDVGVYYCFQGSHVPYTFGQGTKLEIK
11 | 0.15 | 0.288 | 0.841 | 1.71 | 2.4 | 2.46 | 2.47 | 2.57 | 1.1 | 4630 | – | – | – | – | – | – | – | – | hAb006LH1L1b (antibody, human IgG1, V domains shown, Humanized F3.38.7; VH H1 + VL L1b; expressed as human IgG1) VH: EVQLVQSGAEVKKPGSSVKVSCKASGYTFSDYEIHWVRQAPGQGLEWMGAIDPKTGNTAYNQKFMGRVTITADKSTSTAYMELSSLRSEDTAVYYCTRYFSFAYWGQGTLVTVSS VL: DIVMTQTPLSLPVTPGEPASISCRSSQTFVHSNANTYLQWYLQKPGQSPQLLIYKVSNRFSGVPDRFSGSGSGTDFTLKISRVEAEDVGVYYCFQGSHVPYTFGQGTKLEIK
12 | 0.117 | 0.365 | 1.05 | 1.9 | 2.39 | 2.36 | 2.42 | 2.43 | 0.906 | 4780 | – | – | – | – | – | – | – | – | hAb006LH1L1 (antibody, human IgG1, V domains shown, Humanized F3.38.7; VH H1 + VL L1; expressed as human IgG1) VH: EVQLVQSGAEVKKPGSSVKVSCKASGYTFSDYEIHWVRQAPGQGLEWMGAIDPKTGNTAYNQKFMGRVTITADKSTSTAYMELSSLRSEDTAVYYCTRYFSFAYWGQGTLVTVSS VL: DIVMTQTPLSLPVTPGEPASISCRSSQTFVHSNGNTYLQWYLQKPGQSPQLLIYKVSNRFSGVPDRFSGSGSGTDFTLKISRVEAEDVGVYYCFQGSHVPYTFGQGTKLEIK
13 | 0.137 | 0.297 | 0.915 | 1.89 | 2.26 | 2.56 | 2.3 | 2.39 | 1.08 | 5040 | – | – | – | – | – | – | – | – | hAb003LH3L1 (antibody, human IgG1, V domains shown, Humanized F2.154.1; VH H3 + VL L1; expressed as human IgG1) VH: EVQLVQSGAEVKKPGSSVKVSCKASGYRFTDYEMHWVRQAPGQGLEWMGTIDPETGNTAYTQKFMDRVTLTADKSTSTAYMELSSLRSEDTAVYYCTRGYSFTYWGQGTLVTVSS VL: DIVMTQTPLSLPVTPGEPASISCRSSQNIVHSNGNTYLQWYLQKPGQSPQLLIFKVSNRFSGVPDRFSGSGSGTDFTLKISRVEAEDVGVYYCFQGSHVPFTFGQGTKLEIK
